Experimental data reported in patent US20180016324A1 (Regeneron, published 2018).
Numbering of substitutions follows the chain as printed.

B1: H4H25622P (antibody, V domains shown)
VH: QVQLVESGGGVVQPGRSLRLSCAASGFTFSSYGMHWVRQAPGKGLEWLAIIWYDGTNKQYVDSVKGRFTISRDNSKNTLYLQLNSLRAEDTAVYYCARQDFYYYYGMDVWGQGTTVTVSS
VL: not shown
B2: H4H25592P (antibody, V domains shown)
VH: QVQLVESGGGVVQPGRSLRLSCAASGFTFSYSGMHWVRQAPGKGLEWVAVISYDGSNKYYADSVKGRFTISRDNSNNILYLQMNSLRAEDTAVYYCAKDWGGRFDPWGQGTLVTVSS
VL: DIQMTQSPSSLSASVGDRVTITCRASQGISSYLAWYQQIPGKVPKLLIYAASTLHSGVPSRFSGSGSGTDFTLTISSLQPADVATYYCQKYNSAPLTFGGGTKVEIK
B3: H4H25641P (antibody, V domains shown)
VH: B2 VH with S32Y, G55A, K58N, A61V, N76K, I78T, W100Y, P106Y
VL: EIVLTQSPGTLSLSPGERATLSCGASQSVSSYLAWYQQKPGQTPRLLIYGASSRATGIPDRFSGSGSGTDFTLTISRLEPEDFAVYYCQQYGSSPWTFGQGTKVEIK
B4: H4H25640P (antibody, V domains shown)
VH: B2 VH with S32Y, S52L, Y59F, A61S, N76R, I78T, A88L, W100Y, P106Y
VL: EIVLTQSPGTLSLSSGERATLSCRASQSVSNKYLAWYQQKPGQVPRLLIYGASNRATGIPDRFSGSGSGTDFTLTINRLEPEDFAVFYCQQYGSTPSTFGQGTKVEIK
B5: H4H25617P (antibody, V domains shown)
VH: EVQLVESGGGLVQPGGSLRLSCSASGFTFTTYAMSWVRQAPGRGLEWVSSISGTGVSTYYADSVKGRFTISRDNSKNALYLQMNSLTAEDTAVYYCAKDSGTYHWGQGTLVTVSS
VL: EIVLTQSPATLSLSPGERATLSCRASQSVDSYLAWYQQKPGQAPRLLIYDASNRATGIPARFSGSGSGTDFTLTISSLESEDFAVYYCQQRRNWPQFTFGGGTKVEIK
B6: H4H25598P (antibody, V domains shown)
VH: EVQLVESGGGLVQPGGSLRLSCAASGFTVSSNYMSWVRQAPGSGLEWVSVIYSGGITHYIGSVKGRFTISRHNSKNTLYLQMNSLRAEDTAMYYCARERYSGITGNPYGFDFWGQGTMVTVSS
VL: DIQLTQSPSFLSASVGDRVTITCWASQDISSYLAWYQQKPGIAPKLLIYSASTLQSGVPSSFSGSGSGTEFTLTISSLQPEDFATYYCQQLNIYPFTFGPGTKVDIK
B7: H4H25602P (antibody, V domains shown)
VH: B6 VH with I60V, G61D, F112I
VL: B6 VL with S50A, S61R
B8: H4H25637P (antibody, V domains shown)
VH: QLQLQESGPGLVKPSETLSLTCTVSGDSISSSNYFWGWIRQPPGKGLEWIGNIYYSGDTYYNPSLKSRVTMSVDTSKKQFSLKLRSVTAADTAVYYCARGRPYYDFWSGYFDYWGQGTLVTVSS
VL: EIVLTQSPGTLSLSPGERATLPCRASQSVSSSYLAWYQQKPGQAPRLLIYGASSRATGIPDRFRGSGSGTDFTLTISRLEPEDFAVYYCQQYGTAPWTFGQGTKVEIK

Experiments:
[1] = target: T1, ZIKV (prM80E) with a C-terminal myc-myc-hexahistidine tag (Zika virus, UniProt A0A024B7W1 104-694); assay: SPR, mAb captured, 37C, pH 5.5 chase
T1 construct: also called ZIKV (prM80E)-mmH; ZIKV-mmH

[2] = target: ZIKV envelope glycoprotein (E) of strain FLR (Colombia 2015) (Zika virus); assay: cell-based or functional assay
[3] = target: ZIKV envelope glycoprotein (E) of strain MR766 (Uganda 1947) (Zika virus, UniProt Q32ZE1 291-790); assay: cell-based or functional assay
[4] = target: ZIKV envelope glycoprotein (E) of strain PRVABC59 (Puerto Rico 2015) (Zika virus); assay: cell-based or functional assay
[5] = target: T1, ZIKV (prM80E) with a C-terminal …; assay: SPR, mAb captured, 37C
[6] = target: T1, ZIKV (prM80E) with a C-terminal …; assay: SPR, mAb captured, 25C
[7] = target: T1, ZIKV (prM80E) with a C-terminal …; assay: SPR, mAb captured, 37C, pH 5.0 chase
[8] = target: T1, ZIKV (prM80E) with a C-terminal …; assay: SPR, mAb captured, 37C; remark: listed apart in the source
[9] = target: T2, ZIKV prM/E polyprotein on virus-like particles (VLPs) from HEK293T/17 cells (Zika virus, UniProt A0A024B7W1 123-795); assay: MSD ECL, VLPs on plate
T2 construct: also called ZIKV prM/E VLPs; Zika prM/E VLPs

[10] = target: T1, ZIKV (prM80E) with a C-terminal …; assay: SPR, mAb captured, 37C, pH 6.0 chase
[11] = target: T1, ZIKV (prM80E) with a C-terminal …; assay: SPR, mAb captured, 37C; remark: listed apart in the source
[12] = target: T1, ZIKV (prM80E) with a C-terminal …; assay: SPR, mAb captured, 37C, pH 7.4
[13] = target: T2, ZIKV prM/E polyprotein on virus-like …; assay: MSD ECL, VLPs on plate; high concentrations excluded from fit

| Binder | koff [1] | t½ [1] | neutralization IC50, Vero cells [2] | neutralization IC50, Vero cells [3] | neutralization IC50, Vero cells [4] | t½ pH 7.4/t½ pH 6.0 [5] | Kd [6] | koff [6] | kon [6] | t½ [6] | koff [7] | t½ [7] | Kd [8] | koff [8] | kon [8] | t½ [8] | koff [10] | t½ [10] | t½ pH 7.4/t½ pH 5.0 [11] | t½ pH 7.4/t½ pH 5.5 [11] | other results |
| --- | --- | --- | --- | --- | --- | --- | --- | --- | --- | --- | --- | --- | --- | --- | --- | --- | --- | --- | --- | --- | --- |
| B1 | 0.00178 s⁻¹ | 6.49 min | 1580 pM | 188 pM | 1280 pM | 0.7 | 5310 pM | 0.00133 s⁻¹ | 251000 M⁻¹ s⁻¹ | 8.7 min | 0.000704 s⁻¹ | 16.4 min | 9070 pM | 0.00267 s⁻¹ | 295000 M⁻¹ s⁻¹ | 4.3 min | 0.00234 s⁻¹ | 4.93 min | 0.2 | 0.6 | EC50 [9]: 2440 pM; koff [12]: 0.00318 s⁻¹; t½ [12]: 3.63 min |
| B2 | 0.00736 s⁻¹ | 1.57 min | 553 pM | 42.6 pM | 218 pM | 2.9 | 502 pM | 0.000676 s⁻¹ | 1.35e+06 M⁻¹ s⁻¹ | 17.1 min | 0.00658 s⁻¹ | 1.8 min | 1020 pM | 0.00165 s⁻¹ | 1.61e+06 M⁻¹ s⁻¹ | 7 min | 0.00503 s⁻¹ | 2.3 min | 3.8 | 4.2 | EC50 [9]: 213 pM; koff [12]: 0.00174 s⁻¹; t½ [12]: 6.63 min |
| B3 | 0.0204 s⁻¹ | 0.57 min | 212 pM | 37.1 pM | 356 pM | 0.8 | 8750 pM | 0.00922 s⁻¹ | 1.05e+06 M⁻¹ s⁻¹ | 1.3 min | 0.0133 s⁻¹ | 0.9 min | 11900 pM | 0.0188 s⁻¹ | 1.59e+06 M⁻¹ s⁻¹ | 0.6 min | 0.0159 s⁻¹ | 0.73 min | 0.7 | 1.1 | EC50 [9]: 2870 pM; koff [12]: 0.0191 s⁻¹; t½ [12]: 0.61 min |
| B4 | 0.00402 s⁻¹ | 2.87 min | 99 pM | 27.9 pM | 166 pM | 1.9 | 597 pM | 0.000722 s⁻¹ | 1.21e+06 M⁻¹ s⁻¹ | 16 min | 0.00337 s⁻¹ | 3.4 min | 1270 pM | 0.00186 s⁻¹ | 1.47e+06 M⁻¹ s⁻¹ | 6.2 min | 0.00323 s⁻¹ | 3.58 min | 2 | 2.3 | EC50 [13]: 102 pM; koff [12]: 0.00172 s⁻¹; t½ [12]: 6.72 min |
| B5 | 0.00465 s⁻¹ | 2.48 min | 552 pM | 166 pM | 543 pM | 0.8 | 7900 pM | 0.00197 s⁻¹ | 250000 M⁻¹ s⁻¹ | 5.9 min | 0.00464 s⁻¹ | 2.5 min | 16100 pM | 0.00729 s⁻¹ | 452000 M⁻¹ s⁻¹ | 1.6 min | 0.00494 s⁻¹ | 2.34 min | 0.8 | 0.8 | EC50 [9]: 755 pM; koff [12]: 0.00602 s⁻¹; t½ [12]: 1.92 min |
| B6 | 0.0741 s⁻¹ | 0.16 min | 553 pM | 54.5 pM | 398 pM | 32.4 | 156 pM | 4.49e-05 s⁻¹ | 289000 M⁻¹ s⁻¹ | 257 min | 0.114 s⁻¹ | 0.1 min | 700 pM | 0.000284 s⁻¹ | 406000 M⁻¹ s⁻¹ | 40.7 min | 0.0129 s⁻¹ | 0.9 min | 288 | 187 | EC50 [9]: 426 pM; koff [12]: 0.000397 s⁻¹; t½ [12]: 29.1 min |
| B7 | 0.0476 s⁻¹ | 0.24 min | 630 pM | 53.1 pM | 501 pM | 34.1 | 70 pM | 1.95e-05 s⁻¹ | 286000 M⁻¹ s⁻¹ | 592 min | 0.097 s⁻¹ | 0.1 min | 745 pM | 0.000284 s⁻¹ | 381000 M⁻¹ s⁻¹ | 40.6 min | 0.0122 s⁻¹ | 0.95 min | 272 | 134 | EC50 [9]: 1560 pM; koff [12]: 0.000356 s⁻¹; t½ [12]: 32.5 min |
| B8 | 0.00414 s⁻¹ | 2.79 min | 134 pM | 67.1 pM | 239 pM | 0.3 | 6330 pM | 0.00391 s⁻¹ | 617000 M⁻¹ s⁻¹ | 3 min | 0.00228 s⁻¹ | 5.1 min | 9970 pM | 0.00989 s⁻¹ | 992000 M⁻¹ s⁻¹ | 1.2 min | 0.00392 s⁻¹ | 2.95 min | 0.2 | 0.4 | EC50 [9]: 322 pM; koff [12]: 0.0118 s⁻¹; t½ [12]: 0.98 min |
